# Measurements taken from US11833164B2, “Methods of treating Fabry disease in patients having a mutation in the GLA gene” (Amicus Therapeutics, Inc., priority 2019, dated 2023).
# Residue numbers refer to the chain shown, from its start. Names may count otherwise.
# B1: A97T (protein)
# chain: MQLRNPELHLGCALALRFLALVSWDIPGARALDNGLARTPTMGWLHWERFMCNLDCQEEPDSCISEKLFMEMAELMVSEGWKDAGYEYLCIDDCWMTPQRDSEGRLQADPQRFPHGIRQLANYVHSKGLKLGIYADVGNKTCAGFPGSFGYYDIDAQTFADWGVDLLKFDGCYCDSLENLADGYKHMSLALNRTGRSIVYSCEWPLYMWPFQKPNYTEIRQYCNHWRNFADIDDSWKSIKSILDWTSFNQERIVDVAGPGGWNDPDMLVIGNFGLSWNQQVTQMALWAIMAAPLFMSNDLRHISPQAKALLQDKDVIAINQDPLGKQGYQLRQGDNFEVWERPLSGLAWAVAMINRQEIGGPRSYTIAVASLGKGVACNPACFITQLLPVKRKLGFYEWTSRLRSHINPTGTVLLQLENTMQMSLKDLL
# B2: G104D (protein)
# chain: B1 chain with T97A, G104D
# B3: S102T (protein)
# chain: B1 chain with T97A, S102T
# B4: D101H (protein)
# chain: B1 chain with T97A, D101H
# B5: Q99E (protein)
# chain: B1 chain with T97A, Q99E
# B6: S102A (protein)
# chain: B1 chain with T97A, S102A
# B7: D101V (protein)
# chain: B1 chain with T97A, D101V
# B8: R105G (protein)
# chain: B1 chain with T97A, R105G
# B9: Q99L (protein)
# chain: B1 chain with T97A, Q99L
# B10: Q99P (protein)
# chain: B1 chain with T97A, Q99P
# B11: G104A (protein)
# chain: B1 chain with T97A, G104A
# B12: D101G (protein)
# chain: B1 chain with T97A, D101G
# B13: G104S (protein)
# chain: B1 chain with T97A, G104S
# B14: S102P (protein)
# chain: B1 chain with T97A, S102P
# B15: R105I (protein)
# chain: B1 chain with T97A, R105I
# B16: Q99R (protein)
# chain: B1 chain with T97A, Q99R
# B17: D101A (protein)
# chain: B1 chain with T97A, D101A
# B18: P98H (protein)
# chain: B1 chain with T97A, P98H
# B19: P98L (protein)
# chain: B1 chain with T97A, P98L
# B20: D101E (protein)
# chain: B1 chain with T97A, D101E
# B21: P98R (protein)
# chain: B1 chain with T97A, P98R
# Tested on: mutant form of α-Gal A expressed in HEK-293 cells
# Assay: HEK assay (GLP HEK / Migalastat Amenability Assay): α-Gal A activity in lysates of transiently transfected HEK-293 cells incubated with or without 10 μM migalastat
# Format: cell-based, human
# Conditions: 10 μM migalastat versus baseline
# Procedure: Such mutations or variants are also referred to herein as “HEK assay amenable” mutations or variants.
# The α-Gal A activity is expressed as the nmoles of free 4-MU released per milligram of protein per hour (nmol/mg/hr).
# In Table 7, values for the mean±standard error of the mean (SEM) were calculated. nmol/mg/hr indicates “nmoles of free 4-MU released per mg of protein per hour”. WT indicates “wild-type”. NC indicates “not calculable”. N/A indicates “not applicable”.
row,Molecule,Absolute increase (% WT)
1,B1,21.4 % WT
2,B2,30.5 % WT
3,B3,20.5 % WT
4,B4,7.3 % WT
5,B5,25.5 % WT
6,B6,27.3 % WT
7,B7,10.2 % WT
8,B8,15.3 % WT
9,B9,27.4 % WT
10,B10,19.1 % WT
11,B11,40.4 % WT
12,B12,12.7 % WT
13,B13,52.0 % WT
14,B14,22.3 % WT
15,B15,8.2 % WT
16,B16,21.4 % WT
17,B17,10.2 % WT
18,B18,22.5 % WT
19,B19,19.6 % WT
20,B20,10.1 % WT
21,B21,16.4 % WT

# Same assay, conditions: 10 μM migalastat α-Gal A activity relative to baseline
row,Molecule,Relative increase
1,B1,1.8
2,B2,1.8
3,B3,1.3
4,B4,1.4
5,B5,1.4
6,B6,1.6
7,B7,2.2
8,B8,1.4
9,B9,1.4
10,B10,3.3
11,B11,3.7
12,B12,1.3
13,B13,3.9
14,B14,1.3
15,B15,1.3
16,B16,1.2
17,B17,1.5
18,B18,1.4
19,B19,1.3
20,B20,1.4
21,B21,1.3

# Same assay, conditions: 10 μM migalastat, 5 days; percentage of baseline wild-type α-Gal A activity; mean ± SEM
row,Molecule,10 μM migalastat α-Gal A activity (% WT)
1,B1,50.9 ± 2.7 % WT
2,B2,69.8 ± 4.7 % WT
3,B3,76.9 ± 6.2 % WT
4,B4,23.8 ± 1.3 % WT
5,B5,95.8 ± 7.9 % WT
6,B6,69.9 ± 5.1 % WT
7,B7,18 ± 2.6 % WT
8,B8,53.3 ± 3.5 % WT
9,B9,93.4 ± 7.3 % WT
10,B10,28 ± 2.4 % WT
11,B11,55.2 ± 3 % WT
12,B12,54.5 ± 3.8 % WT
13,B13,69.8 ± 5.8 % WT
14,B14,91.7 ± 5 % WT
15,B15,41.6 ± 3.1 % WT
16,B16,114.8 ± 8 % WT
17,B17,34.1 ± 3.3 % WT
18,B18,83.4 ± 4.6 % WT
19,B19,88.5 ± 6.3 % WT
20,B20,34 ± 2.8 % WT
21,B21,85.8 ± 5.8 % WT

# Same assay, conditions: absence of migalastat; percentage of baseline wild-type α-Gal A activity; mean ± SEM
row,Molecule,Baseline α-Gal A activity (% WT)
1,B1,29.4 ± 2.2 % WT
2,B2,39.3 ± 2.6 % WT
3,B3,56.4 ± 5.2 % WT
4,B4,16.5 ± 1.2 % WT
5,B5,70.3 ± 4.1 % WT
6,B6,42.6 ± 3.5 % WT
7,B7,7.8 ± 0.5 % WT
8,B8,38 ± 2.1 % WT
9,B9,65.9 ± 5.1 % WT
10,B10,8.8 ± 1.2 % WT
11,B11,14.8 ± 1 % WT
12,B12,41.8 ± 3.1 % WT
13,B13,17.9 ± 1.8 % WT
14,B14,69.4 ± 3.4 % WT
15,B15,33.4 ± 2.2 % WT
16,B16,93.4 ± 6.3 % WT
17,B17,23.9 ± 3 % WT
18,B18,60.8 ± 3.1 % WT
19,B19,69 ± 5.5 % WT
20,B20,23.9 ± 1.6 % WT
21,B21,69.4 ± 4 % WT

# Same assay, conditions: lysates of HEK-293 cells transfected with the mutant form, incubated 5 days in the absence of migalastat; mean ± SEM
row,Molecule,Baseline α-Gal A activity
1,B1,11157 ± 776 nmol/mg/h
2,B2,14123 ± 1096 nmol/mg/h
3,B3,22123 ± 2319 nmol/mg/h
4,B4,7311 ± 556 nmol/mg/h
5,B5,25264 ± 1668 nmol/mg/h
6,B6,17330 ± 2084 nmol/mg/h
7,B7,3368 ± 179 nmol/mg/h
8,B8,16513 ± 681 nmol/mg/h
9,B9,23382 ± 1548 nmol/mg/h
10,B10,3034 ± 340 nmol/mg/h
11,B11,5271 ± 397 nmol/mg/h
12,B12,18091 ± 1103 nmol/mg/h
13,B13,5720 ± 464 nmol/mg/h
14,B14,27252 ± 1778 nmol/mg/h
15,B15,9696 ± 798 nmol/mg/h
16,B16,32963 ± 1757 nmol/mg/h
17,B17,10144 ± 1069 nmol/mg/h
18,B18,21896 ± 1232 nmol/mg/h
19,B19,24223 ± 1555 nmol/mg/h
20,B20,10465 ± 624 nmol/mg/h
21,B21,24969 ± 1730 nmol/mg/h

# Same assay, conditions: lysates of HEK-293 cells transfected with the mutant form, incubated 5 days with 10 μM migalastat; mean ± SEM
row,Molecule,10 μM migalastat α-Gal A activity
1,B1,19875 ± 1502 nmol/mg/h
2,B2,24797 ± 1771 nmol/mg/h
3,B3,29662 ± 2559 nmol/mg/h
4,B4,10493 ± 561 nmol/mg/h
5,B5,34635 ± 3117 nmol/mg/h
6,B6,26790 ± 1958 nmol/mg/h
7,B7,7489 ± 936 nmol/mg/h
8,B8,22993 ± 1042 nmol/mg/h
9,B9,33479 ± 2746 nmol/mg/h
10,B10,9885 ± 794 nmol/mg/h
11,B11,19670 ± 1202 nmol/mg/h
12,B12,23672 ± 1428 nmol/mg/h
13,B13,22242 ± 1000 nmol/mg/h
14,B14,35885 ± 2754 nmol/mg/h
15,B15,12128 ± 1157 nmol/mg/h
16,B16,41024 ± 3001 nmol/mg/h
17,B17,14707 ± 1289 nmol/mg/h
18,B18,29920 ± 1808 nmol/mg/h
19,B19,31835 ± 2399 nmol/mg/h
20,B20,14682 ± 993 nmol/mg/h
21,B21,31289 ± 2550 nmol/mg/h
